{"source": "paper PMC4283134", "about": "“Nup98 FG domains from diverse species spontaneously phase-separate into particles with nuclear pore-like permselectivity” (eLife, 2015)", "binders": {"B1": {"name": "Atto488-labelled IBB domain of S. cerevisiae Srp1p (domain or fragment)", "chain": "DNGTDSSTSKFVPEYRRTNFKNKGRFSADELRRRRDTQQVELRKAKRDEALAKRRNFIPPTDC", "modifications": "also: Atto488 label, position not given here", "notes": "IBB domain of Srp1p (importin α), S. cerevisiae, residues 2-63; C-terminal cysteine of the construct; The label probably sits on the C-terminal cysteine; also called ScIBB; IBB-Atto488; source: E. coli (BLR or NEB Express), purified (native Ni(II) chelate chromatography, tag removed); not shown: His14, N-terminal, cleaved; ZZ, N-terminal, cleaved; brNEDD8, N-terminal, cleaved"}}, "target": "T1, Saccharomyces cerevisiae Importin β (Kap95p) (S. cerevisiae, UniProt Q06142 1-861)", "T1 sequence (looked up)": "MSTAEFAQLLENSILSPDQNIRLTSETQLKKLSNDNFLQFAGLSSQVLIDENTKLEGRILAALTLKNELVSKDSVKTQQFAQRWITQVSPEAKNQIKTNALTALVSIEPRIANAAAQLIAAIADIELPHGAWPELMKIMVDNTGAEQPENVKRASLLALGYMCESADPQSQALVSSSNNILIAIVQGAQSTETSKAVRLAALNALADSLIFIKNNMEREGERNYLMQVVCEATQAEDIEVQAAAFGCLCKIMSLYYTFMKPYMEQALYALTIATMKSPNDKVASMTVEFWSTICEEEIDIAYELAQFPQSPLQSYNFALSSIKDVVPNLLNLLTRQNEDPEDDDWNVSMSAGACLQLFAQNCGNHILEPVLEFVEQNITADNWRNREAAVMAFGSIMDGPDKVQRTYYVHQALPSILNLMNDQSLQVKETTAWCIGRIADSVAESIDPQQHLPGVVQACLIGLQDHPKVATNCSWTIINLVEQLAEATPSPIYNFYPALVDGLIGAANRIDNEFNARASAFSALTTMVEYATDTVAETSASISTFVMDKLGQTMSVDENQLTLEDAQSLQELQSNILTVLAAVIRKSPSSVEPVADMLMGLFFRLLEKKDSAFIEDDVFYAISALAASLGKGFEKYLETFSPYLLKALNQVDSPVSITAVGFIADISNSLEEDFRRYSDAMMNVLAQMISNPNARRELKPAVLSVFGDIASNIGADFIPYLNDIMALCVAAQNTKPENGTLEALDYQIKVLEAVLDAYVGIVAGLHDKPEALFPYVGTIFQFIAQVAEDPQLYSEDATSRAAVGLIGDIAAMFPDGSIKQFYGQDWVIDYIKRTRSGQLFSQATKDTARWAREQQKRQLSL", "assay": "NTR⋅cargo complex formed from purified proteins, followed by the fluorescent cargo's entry into FG particles (confocal microscopy); 1 µM complex (referring to substrate monomers) added to FG particles; no separate test of complex formation is described", "details": "both partners purified"}
{"binder": "B1", "values": [{"measurement": "binding result", "result": "binds"}]}
